Experimental findings from US20240132859A1, “MODIFIED DEHALOGENASE WITH EXTENDED SURFACE LOOP REGIONS” (Promega Corporation, priority 2022, published 2024) are described below.

In data set [1] the test system is HeLa cells expressing HiBiT-tagged GAPDH. The experiment in a line: Complementation-based chimeras transfected into genome edited HeLa cells expressing HiBiT-tagged GAPDH: expression, brightness, BRET. The class given is cell-based. How it is done:
FIG. 23 A-G. Characterization of transiently expressed complementation-based chimeras incorporating flexible linkers and LgBiT+4 circularly permuted at two alternative sites (i.e., 67/68 or 49/50). Constructs encoding the chimeras were transfected into genome edited HeLa cells expressing HiBiT-tagged GAPDH. Cells were evaluated for expression, brightness, and efficiency of intramolecular BRET to a bound TMR ligand. (A) Structure of the HALOTAG-cpLGBIT chimeras. (B) Expression levels. Lysates from cells labeled with 1 μM HaloTag-TMR ligand were resolved on SDS-PAGE and scanned on a fluorescent imager. Expression levels quantitated using Image J software were normalized to the expression of HaloTag178-cpLgBIT+4 67/68-179. (C) Total luminescence from cells treated with 20 μM fluorofurimazine. (D) Intramolecular BRET efficiencies for cells treated with 500 nM HaloTag-TMR ligand.
(In general: The HiBiT peptide binds its large partner to form an active luciferase.)

Data set [2] can be described thus: Total luminescence (brightness) of purified fusions and chimeras treated with fluorofurimazine. The class given is biochemical. As to conditions: 6 nM chimeras complemented with 60 nM VS-HiBiT; compared with HT-178(L1-3)cpLgBiT+4 67/68-179. The source says: (§1) FIG. 9A-D. Characteristics of HaloTag-NLuc fusions and chimeras generated by insertion of circularly-permuted NanoLuc (cpNLuc), circularly-permuted thermostable NanoLuc (cptsNLuc), and circularly-permuted thermostable NanoLuc with a point mutation, F164C (cptsNLuc(F164C)) into loops 165 and 180. Fusion and chimeras were expressed in E. coli, purified, and compared for binding kinetics of a chloroalkane-TMR ligand, brightness of luminescence, and efficiency of intramolecular BRET to a bound TMR ligand. (A) Chimera structures (B) Binding kinetics of 2.5 nM chloroalkane-TMR to 20 nM fusions, and chimeras monitored via fluorescent polarization (C) Total luminescence for 6 nM fusions, and chimeras treated with 20 μM fluorofurimazine (D) Intramolecular BRET efficiencies for 6 nM fusions, and chimeras that were labeled with 5-fold molar excess of chloroalkane-TMR and treated with 20 μM fluorofurimazine.
(§2) FIG. 13A-B. Luminescence and BRET efficiencies of HaloTag-LgBiT fusions, and chimeras generated by insertion of LgBiT and circularly-permuted LgBiT (cpLgBiT) into loop 180. […]
(§3) FIG. 19 A-E. Biochemical characterization of chimeras generated by inserting a circularly permuted NanoLuc to HaloTag's loops 180 and 194/195. […] (C) Binding kinetics of 2.5 nM HaloTag-TMR ligand to 20 nM chimeras monitored via fluorescent polarization. […]

Data set [3] is described as follows: Intramolecular BRET efficiency of purified fusions and chimeras to a bound TMR ligand. The class given is biochemical. As to conditions: 6 nM chimeras complemented with 60 nM VS-HiBiT; compared with HT-178(L1-3)cpLgBiT+4 67/68-179.
Source text: as §1, §2, §3
(In BRET a luciferase serves as donor, and the signal depends on an acceptor being close.)

The next data set concerns VS-HiBiT peptide. The experiment in a line: Binding affinity of complementation-based chimeras to VS-HiBiT peptide. As to conditions: compared with HT-178(L1-3)cpLgBiT+4 67/68-179. How it is done:
FIG. 22 A-I. Biochemical characterization of complementation-based chimeras incorporating flexible linkers and LgBiT+4 circularly permuted at two alternative sites (i.e., 67/68 or 49/50). (A) Structure of the HALOTAG-cpLGBIT chimeras. (B-C) Influence of flexible linkers on binding kinetics of 2.5 nM HaloTag-TMR ligand to 20 nM chimeras, which were complemented with 200 nM VS-HiBiT. (C-D) Influence of flexible linkers on binding affinity to a VS-HiBiT peptide. (E-F) Total luminescence for 6 nM chimeras complemented with 60 nM VS-HiBiT and treated with 20 μM fluorofurimazine. (G-I) Intramolecular BRET efficiencies for 6 nM chimeras complemented with 60 nM VS-HiBiT and covalently labeled with HaloTag-TMR ligand.
FIG. 25 A-E. Influence of additional LgTrip mutations on biochemical properties of the lead complementation-based chimera HaloTag178(L1-3)-cpLgBiT+4-179. Annotations of the additional mutations are based on a full length non disrupted NanoLuc protein (A) Structure of the HALOTAG-cpLGBIT chimeras (B) Influence of mutations on binding affinities to the VS-HiBiT peptide. (C) Influence of mutations on brightness and efficiency of intramolecular BRET to a bound TMR ligand for 6 nM chimeras complemented with 60 nM VS-HiBiT. (D-E) Binding kinetics of 2.5 nM HaloTag-TMR ligand to 20 nM or 80 nM chimeras, which were complemented with 200 nM or 800 nM VS-HiBiT, respectively.
FIG. 26 A-C. […]

The mark [4] stands for this setting: mammalian cells, among the tested HALOTAG-cpLGBIT chimeras.

Numbering of substitutions follows the chain as printed. In names and notes the source's numbering stands.

B1: HaloTag-178-(L1-3)cpLgBiT+4 67/68 (E4D, Q42M, M106K, T144D)-179: SEQ ID NO: 93 (protein)
chain: GSEIGTGFPFDPHYVEVLGERMHYVDVGPRDGTPVLFLHGNPTSSYVWRNIIPHVAPTHRCIAPDLIGMGKSDKPDLGYFFDDHVRFMDAFIEALGLEEVVLVIHDWGSALGFHWAKRNPERVKGIAFMEFIRPIPTWDEWPEFARETFQAFRTTDVGRKLIIDQNVFIEGTLPMGVVGGSSADQMAQIEEVFKVVYPVDDHHFKVILPYGTLVIDGVTPNKLNYFGRPYEGIAVFDGKKITVTGTLWNGNKIIDERLIDPDGSMLFRVTINSGGTGGSGGTGGSMVFTLDDFVGDWEQTAAYNLDQVLEQGGVSSLLQNLAVSVTPIMRIVRSGENALKIDIHVIIPYEGLRPLTEVEMDHYREPFLNPVDREPLWRFPNELPIAGEPANIVALVEEYMDWLHQSPVPKLLFWGTPGVLIPPAEAARLAKSLPNCKAVDIGPGLNLLQEDNPDLIGSEIARWLSTLEISG
As to B1, the expression entry in data set [1] (genome-edited HeLa cells expressing HiBiT-tagged-GAPDH) is given as “highest”. In data set [1] (setting [4]), the BRET efficiency result is recorded as “highest” and the brightness entry is “highest”.

B2: HaloTag-178-(L1-3)cpLgBiT+4 67/68 (E4D, Q42M, M106K, T144D, R112H, V127T, K123E)- 179: SEQ ID NO: 106 (protein)
chain: B1 chain with R228H, K239E, V243T
Take B2: the brightness result in data set [2] is on record as “similar”. The BRET efficiency result in data set [3] is recorded as “similar”. Further, in the data set with VS-HiBiT peptide, the “binding affinity to VS-HiBiT” value is given as “significantly higher affinity”.
